Experimental data reported in patent US20050069911A1.
Where no end group is shown, it is not given here.

What was measured:
antibody P1 [1] = test: peptide competition ELISA; free peptide competes with immobilized target peptide for P1
antibody P1 [2] = test: peptide competition ELISA (Example 5): the free peptide, in rising concentration, competes with the plate-bound target peptide for antibody P1; HRP-labelled secondary antibody, absorbance at 450
antibody C1 [3] = test: peptide competition ELISA (Example 5): the free peptide, in rising concentration, competes with the plate-bound target peptide for antibody C1; HRP-labelled secondary antibody, absorbance at 450
antibody C1 [4] = test: peptide competition ELISA; free peptide competes with immobilized target peptide for C1
antibody P1 [5] = test: peptide competition ELISA; free peptide against immobilized target peptide for P1
antibody P1 [6] = test: peptide competition ELISA
antibody C1 [7] = test: peptide competition ELISA; free peptide against immobilized target peptide for C1
antibody C1 [8] = test: peptide competition ELISA

Binder | IC50 (antibody P1 [5]) [µM] | fold higher concentration without competition, against the antigen PET EPAELTDA (antibody P1 [6]) [fold] | IC50 (antibody C1 [7]) [µM] | fold higher concentration without competition, against the antigen PET YEVQGEVF (antibody C1 [8]) [fold] | other results
EPAELTDA (not fully specified) [PSA-derived 8-mer PET peptide EPAELTDA] |  |  |  |  | IC50 (antibody P1 [1]): 0.04 µM; IC50 (read off the curve) (antibody P1 [2]): 0.09 µM
YEVQGEVF [CRP-derived 8-mer PET peptide YEVQGEVF] |  |  |  |  | IC50 (read off the curve) (antibody C1 [3]): 0.9 µM; IC50 (antibody C1 [4]): 1 µM
EPVELTSA [nearest-neighbor 8-mer peptide EPVELTSA] | > 1000 | 25000 |  |  | 
DPTQLTDA [nearest-neighbor 8-mer peptide DPTQLTDA] | > 1000 | 25000 |  |  | 
VEVNGEVF [nearest-neighbor 8-mer peptide VEVNGEVF] |  |  | > 1000 | > 1000 | 
YEVLGEEF [nearest-neighbor 8-mer peptide YEVLGEEF] |  |  | > 1000 | > 1000 | 
